From publication PMC7542444 come the findings set out here.

The target of the first test is His6-STLV-1 IN (6xHis-tagged STLV-1 MarB43 IN), wild type. Nature of the test: pull-down. Particulars: parent: est. 100; read off a plot.
For the substance “LEDGF/ΔIBD-B56γ chimera (LEDGF residues 1-324 and B56γ residues 11-380), wild type (from UniProt O75475;Q13362) R143A”, the percent of parent (% of wild type) came out at 46. In the case of “LEDGF/ΔIBD-B56γ chimera (LEDGF residues 1-324 and B56γ residues 11-380), wild type (from UniProt O75475;Q13362) R84A”, the percent of parent (% of wild type) turned out to be 140.

Turning to “LEDGF/ΔIBD-B56γ chimera (LEDGF residues 1-324 and B56γ residues 11-380), wild type (from UniProt O75475;Q13362) E78A; T81A; H82A”, the percent of parent (% of wild type) was determined as 150.

The target of the next test is LEDGF/ΔIBD-B56γ chimera (LEDGF residues 1-324 and B56γ residues 11-380), wild type, O75475;Q13362. Nature of the test: pull-down. The settings on record: parent: est. 100; read off a plot.
“His6-STLV-1 IN (6xHis-tagged STLV-1 MarB43 IN), wild type H209A”: the percent of parent (% of wild type) was 23. The same measure, in the same setting: as for “His6-STLV-1 IN (6xHis-tagged STLV-1 MarB43 IN), wild type I216A”, the figure is 1; as for “His6-STLV-1 IN (6xHis-tagged STLV-1 MarB43 IN), wild type P215A; P217A”, 15; as for “His6-STLV-1 IN (6xHis-tagged STLV-1 MarB43 IN), wild type H209A; P211A”, 21. On the same count and under the same terms, as for “His6-STLV-1 IN (6xHis-tagged STLV-1 MarB43 IN), wild type P214A”, the figure is 57. In the case of “His6-STLV-1 IN (6xHis-tagged STLV-1 MarB43 IN), wild type E218A”, the percent of parent (% of wild type) turned out to be 5.
